The text below walks through data of the supplement of paper PMC5998384.

Data set [1] concerns HeLa Kyoto. As to the kind of experiment: solubility in G1/S (NP-40 vs SDS abundance) (log2 ratio); higher = more soluble. Particulars: cell cycle stage: G1/S.
The test system of data set [2] is HeLa Kyoto. The data set can be described thus: melting temperature (median over replicates), in situ; higher = more thermally stable.
The test system of data set [3] is HeLa Kyoto. As to the kind of experiment: solubility change mitosis vs G1/S (difference of NP-40 vs SDS log2 ratios) (log2 ratio difference); higher = more soluble in mitosis.
Data set [4] concerns HeLa Kyoto. As to the kind of experiment: thermal stability score vs G1/S (z-score of summed log2 fold changes over temperatures); higher = more thermally stable than in G1/S.
Setting [5] is: cell cycle stage: early G1 (4.5 h after nocodazole release).
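Wherever melting temperature (median over replicates), in situ is given: HeLa Kyoto cells synchronized by double thymidine or nocodazole block, proteins quantified by TMT10plex mass spectrometry, three independent biological replicates.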
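Wherever solubility change mitosis vs G1/S (difference of NP-40 vs SDS log2 ratios) is given: synchronized HeLa Kyoto cells (double thymidine block for G1/S, nocodazole release for mitosis), protein amounts in NP-40 versus SDS lysates quantified by mass spectrometry, three biological replicates.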
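Wherever solubility in G1/S (NP-40 vs SDS abundance) is given: HeLa Kyoto cells arrested at G1/S by double thymidine block, proteins quantified by TMT10plex mass spectrometry in mild NP-40 versus SDS extracts, three biological replicates.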
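Wherever thermal stability score vs G1/S (z-score of summed log2 fold changes over temperatures) is given: synchronized HeLa Kyoto cells, proteins quantified by TMT10plex mass spectrometry, three biological replicates, mitosis taken 0.5 h after nocodazole release, G1/S directly after double thymidine block.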

For the substance “MLRLPTVFRQMRPVSRVLAPHLTRAYAKDVKFGADARALMLQGVDLLADAVAVTMGPKGRTVIIEQSWGSPKVTKDGVTVAKSIDLKDKYKNIGAKLVQDVANNTNEEAGDGTTTATVLARSIAKEGFEKISKGANPVEIRRGVMLAVDAVIAELKKQSKPVTTPEEIAQVATISANGDKEIGNIISDAMKKVGRKGVITVKDGKTLNDELEIIEGMKFDRGYISPYFINTSKGQKCEFQDAYVLLSEKKISSIQSIVPALEIANAHRKPLVIIAEDVDGEALSTLVLNRLKVGLQVVAVKAPGFGDNRKNQLKDMAIATGGAVFGEEGLTLNLEDVQPHDLGKVGEVIVTKDDAMLLKGKGDKAQIEKRIQEIIEQLDVTTSEYEKEKLNERLAKLSDGVAVLKVGGTSDVEVNEKKDRVTDALNATRAAVEEGIVLGGGCALLRCIPALDSLTPANEDQKIGIEIIKRTLKIPAMTIAKNAGVEGSLIVEKIMQSSSEVGYDAMAGDFVNMVEKGIIDPTKVVRTALLDAAGVASLLTTAEVVVTEIPKEEKDPGMGAMGGMGGGMGGGMF [HSPD1]”, in data set [1], the “solubility in G1/S (log2)” value amounted to 0.316. In addition, the melting temperature in data set [2] (cell cycle stage: G1/S) came to 55.2 °C; in data set [2] (cell cycle stage: mitosis), 55 °C. Further, in data set [3], the “solubility change mitosis (log2)” value turned out to be 0.129. Moreover, the thermal stability score in data set [4] (setting [5]) is 1.84; in data set [4] (cell cycle stage: mitosis), -0.583.
As to PLXNA1, the “solubility in G1/S (log2)” value in data set [1] was -0.0498. Further, the melting temperature amounted to 53.8 °C in data set [2] (cell cycle stage: G1/S) and 52.5 °C in data set [2] (cell cycle stage: mitosis). Besides, the “solubility change mitosis (log2)” value in data set [3] was 0.0188. The thermal stability score in data set [4] (setting [5]) was -1.69; in data set [4] (cell cycle stage: mitosis) it was -1.65.
On to “MAGAIASRMSFSSLKRKQPKTFTVRIVTMDAEMEFNCEMKWKGKDLFDLVCRTLGLRETWFFGLQYTIKDTVAWLKMDKKVLDHDVSKEEPVTFHFLAKFYPENAEEELVQEITQHLFFLQVKKQILDEKIYCPPEASVLLASYAVQAKYGDYDPSVHKRGFLAQEELLPKRVINLYQMTPEMWEERITAWYAEHRGRARDEAEMEYLKIAQDLEMYGVNYFAIRNKKGTELLLGVDALGLHIYDPENRLTPKISFPWNEIRNISYSDKEFTIKPLDKKIDVFKFNSSKLRVNKLILQLCIGNHDLFMRRRKADSLEVQQMKAQAREEKARKQMERQRLAREKQMREEAERTRDELERRLLQMKEEATMANEALMRSEETADLLAEKAQITEEEAKLLAQKAAEAEQEMQRIKATAIRTEEEKRLMEQKVLEAEVLALKMAEESERRAKEADQLKQDLQEAREAERRAKQKLLEIATKPTYPPMNPIPAPLPPDIPSFNLIGDSLSFDFKDTDMKRLSMEIEKEKVEYMEKSKHLQEQLNELKTEIEALKLKERETALDILHNENSDRGGSSKHNTIKKLTLQSAKSRVAFFEEL [NF2]”, for which the “solubility in G1/S (log2)” value in data set [1] is -0.161. Moreover, the melting temperature in data set [2] (cell cycle stage: G1/S) was determined as 51.6 °C; in data set [2] (cell cycle stage: mitosis) it was 50.7 °C. In data set [3], the “solubility change mitosis (log2)” value was -0.0393. The thermal stability score in data set [4] (setting [5]) amounted to 0.0456; in data set [4] (cell cycle stage: mitosis) it was 0.294.
With “MAEGSGEVVAVSATGAANGLNNGAGGTSATTCNPLSRKLHKILETRLDNDKEMLEALKALSTFFVENSLRTRRNLRGDIERKSLAINEEFVSIFKEVKEELESISEDVQAMSNCCQDMTSRLQAAKEQTQDLIVKTTKLQSESQKLEIRAQVADAFLSKFQLTSDEMSLLRGTREGPITEDFFKALGRVKQIHNDVKVLLRTNQQTAGLEIMEQMALLQETAYERLYRWAQSECRTLTQESCDVSPVLTQAMEALQDRPVLYKYTLDEFGTARRSTVVRGFIDALTRGGPGGTPRPIEMHSHDPLRYVGDMLAWLHQATASEKEHLEALLKHVTTQGVEENIQEVVGHITEGVCRPLKVRIEQVIVAEPGAVLLYKISNLLKFYHHTISGIVGNSATALLTTIEEMHLLSKKIFFNSLSLHASKLMDKVELPPPDLGPSSALNQTLMLLREVLASHDSSVVPLDARQADFVQVLSCVLDPLLQMCTVSASNLGTADMATFMVNSLYMMKTTLALFEFTDRRLEMLQFQIEAHLDTLINEQASYVLTRVGLSYIYNTVQQHKPEQGSLANMPNLDSVTLKAAMVQFDRYLSAPDNLLIPQLNFLLSATVKEQIVKQSTELVCRAYGEVYAAVMNPINEYKDPENILHRSPQQVQTLLS [COG6]”, in data set [1], the “solubility in G1/S (log2)” value turned out to be 0.289. Also, the melting temperature amounted to 48.6 °C in data set [2] (cell cycle stage: G1/S) and 49.3 °C in data set [2] (cell cycle stage: mitosis). In addition, in data set [3], the “solubility change mitosis (log2)” value is -0.0596. In addition, the thermal stability score came to 0.0299 in data set [4] (setting [5]) and 0.655 in data set [4] (cell cycle stage: mitosis).
For SON, in data set [1], the “solubility in G1/S (log2)” value is -1.78. The melting temperature is 47.4 °C in data set [2] (cell cycle stage: G1/S) and 49.4 °C in data set [2] (cell cycle stage: mitosis). Besides, the “solubility change mitosis (log2)” value in data set [3] was 1.3. The thermal stability score turned out to be 0.322 in data set [4] (setting [5]) and 4.26 in data set [4] (cell cycle stage: mitosis).
Turning to “MEEGGGGVRSLVPGGPVLLVLCGLLEASGGGRALPQLSDDIPFRVNWPGTEFSLPTTGVLYKEDNYVIMTTAHKEKYKCILPLVTSGDEEEEKDYKGPNPRELLEPLFKQSSCSYRIESYWTYEVCHGKHIRQYHEEKETGQKINIHEYYLGNMLAKNLLFEKEREAEEKEKSNEIPTKNIEGQMTPYYPVGMGNGTPCSLKQNRPRSSTVMYICHPESKHEILSVAEVTTCEYEVVILTPLLCSHPKYRFRASPVNDIFCQSLPGSPFKPLTLRQLEQQEEILRVPFRRNKEEDLQSTKEERFPAIHKSIAIGSQPVLTVGTTHISKLTDDQLIKEFLSGSYCFRGGVGWWKYEFCYGKHVHQYHEDKDSGKTSVVVGTWNQEEHIEWAKKNTARAYHLQDDGTQTVRMVSHFYGNGDICDITDKPRQVTVKLKCKESDSPHAVTVYMLEPHSCQYILGVESPVICKILDTADENGLLSLPN [ERLEC1]”, the “solubility in G1/S (log2)” value in data set [1] worked out at 0.0171. Moreover, the melting temperature in data set [2] (cell cycle stage: G1/S) stood at 54.1 °C; in data set [2] (cell cycle stage: mitosis), 54 °C. In addition, in data set [3], the “solubility change mitosis (log2)” value is -0.0947. The figures for the thermal stability score in data set [4] (setting [5]) and in data set [4] (cell cycle stage: mitosis) were 1.6 and 0.429, respectively.
